Test: yeast display, Sf9 membrane polyspecificity reagent, FACS + sequencing; frameworks hold sequencing errors
How it was run: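 Polyreactivity labels are assigned by the sorting gate from which each nanobody was recovered. The gates were low and high (top ~1%), set on anti-HA fluorescence for expression and streptavidin fluorescence for reagent binding. Before sorting, galactose-induced (36–48 hours) yeast display cells were stained for 1 hour at 4 °C with 10% biotinylated, detergent-solubilized Sf9 membrane reagent.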

Sequence	polyreactivity (PSR sort gate)
QVQLVESGGGLVQAGGSLRLSCAASGSIFGDYVLGWYRQAPGKERELVASISESTDSTYYADSVKGRFTISRDNAKNTVYLQMNSLKPEDTAVYYCATAYPEWAVWGYDYWGQGTQVTVSS	low polyreactivity
QVQLVESGGGLVQAGGSLSLSCAASGGIFFYYAMGWYRQAPGKEMELVASISYSGGSTYYADSVKGRFTISRDNAKNTVYLQMNSLKTEDTAVYYCAARTHYFPWPWYVWDYDSWGQGTQVTVSS	low polyreactivity
QVQLVESGGGLVQAGGSLRLTCAASGSIFHGNDMGWYRQAPGKETELVATISSGGSTYYADSVKGRFTSSRDNAKTTVYLQMNSLKPEDTAVYYCAAERFWPYKSYYWGQGTQVTVSS	low polyreactivity
EVQLVESRGGLVQAGGSLRLSCAASGSILVGYAMGWYRQAPGKERELVAAISFSGGSTYYADSVKGRFTISRDNAKNTVFLQLNSLKPEDTAVYYCASKRRVWIFYSSSDDYWGQGTQVTVSS	low polyreactivity
QVQLVESGGGLVQAGGSLRISCAASGRIFDNYAMGWNRQAPGKERELVAAISVSGDSTYYADSVKGRFTISRDNAKNTVYLQMNSLKPEDTAVYYCAVDPDSYWYLTWADEMYYWGQGTQVTVSS	high polyreactivity
QVQLVESGGGLVQAGGSLRLSCAASGRIFRLYAMGWYRQSPGKERELVATITSGGTYYADSVKGRFTISRDNAKNTVYLQMNSLKPEDTAVYYCTARRRLRYDYWGQGTQVTVSS	low polyreactivity
QVQLVESGGGLVQAGGRLRLSCAASGIIFTPYAMGRYRQAPGKERELVAAISWIGGRTYYADSVKGRFTISRDKAKNTVYLQMNSLKPEDTAVYYCAASYRAWSGNYWGQGTQVTVSS	high polyreactivity
QVQLVESVGGLVQAGGSLRLSCAASGFTFYKYAMGWYRQAPGKEREFVAAIRTRSDSTYYADSVKGRFTISRDNAKNTVYLQMNSLKPEDTAVYYCAAQGYVEVGYSRYYYWGQGTQVTVSS	high polyreactivity
QVQLVESGGGLVQAGGRLRLSCAASGGIFGQNAMRWYRQAPGKERELVAGISASGGSTYYADSVKGRFTISRDNAKNTVYLQRNSLKPEDTAVYYCAARTKRRRYDYWGQGTQVTVSS	high polyreactivity
QVQLVESGGGLVQAGGSLRLSCAASGSTLKYYAMGRYRQAPGKEMELVAAIRNLGGRTYYADSVKGRFTISRDNAKNTVYLQMNSLKPEDTAVYYCAAQFQSTAVGRDNYWGQGTQVTVSS	high polyreactivity
QVQLVESGGGLVQAGGSLRLSCAASGRIFLRNVMGWYRQAPGKERELVAAISARGGSTYYADSVKGRFTISRDNGKNSVYLQMNSLKPEDTAVYYCAAGYPVSPSKYYYWGQGTQVTVSS	high polyreactivity
QVQLVESGGGLVHAGGSLRLSCAASGSTFYQNGMGWYRQAHGQERELVAALTGDGGSTYYADSVKGRFTISRDNAKNTVSLHMNSLKPEDTAVYYCAADWTVITDSQFNSGYDYWGQGTQVTVSS	low polyreactivity
QVQLVESGGGLVQAGGSLRLTSAASGSIFPYNAMGWYRPAPGKDSELLARISWSGGSTYYADSVKGRFTISRDNAKNTVYLQMKSLKPEDTALYYGAATIIFDAQYRFYYWGQGTQVTVSS	low polyreactivity
QVQHVESGGGLVQAGGSLRLSCAASGRTFKGYAMGWYRQAPGKESQLVAGISTGGNTNYADSVMGRFTISRDNAKNTVYLQMNSLKPEDTAVYYCNAVYRGFTHYTGYEYWGQGTQVTVSS	high polyreactivity
QVQLVESGGGLVQAGGSLRLSCAASGFTFWQYDMGWYRQAPGKERELVAAITSSGSRTYYADSVKGRFTISRDNAKNTVYLQMNSLKPEDTAVYYCNTYLRYWVSYSYDYWGQGTQVTVSS	high polyreactivity
QVQLVESGGGLLQAGVSLRLSCAASGFIFSYNTMGWYRQPPGKEREFVAAITYSGGSTYYADSVKWRFTSSRHNAKNSVYLQMNTLKPEDTAVYYCAAPYPRGYFFGDSPKGYGGGYWGQGTQVTVSS	high polyreactivity
QVQLVESGGGLVQAGGSLRLSCAASGSTFTVNDMGWYRQAPGKERELVAAITQRDGRTFYADSVKGRFTISRDNAKNTVYLQMNSLKPEDTAVYYCAATFIQVVVNVQLYDYDYWGQGTQVTVSS	low polyreactivity
QVQLVESGGGLFQAGGSLRLSCAATGRTIVIYAMRWYRQAPGKERELVAAISFSGDTAYYADSVKGRFTISRDNAKNTVYLQMNSLKPDHTAVYYCAAVTQPWSYYRRDYWGQGTQVTVSS	high polyreactivity
QVQLVESVGGLVQAGGSLRLSCAASGSIFSYYAMGWYRQAPGKERELVAAITSSGDSTYYADSVKGRFTISRDNAKNTVYLQINSLKPEDTAVYYCAAGILDLKLYFSSYDYWGQGTQVTVSS	low polyreactivity
QVQLVESGGGLVQAGGSLRLSCAASGRTFPYYAMGWYRQAPGKERELVAAISSSGGSTYYADSVKARFTISGDNAKNTVYLQMNSLKPEDTAVYDCTRYSRLYLTDDDYWGQGTQVTVSS	high polyreactivity
QVQLVESGGGLVQAGGSLRLICAASGRIFLNSTMGSYRQEPGKERELVADITWRGGSTYYADSVKGRFTISRDNAKNTVYLQMNSLKPEDTAVYYWNAVSVSSKRSDYWVQGTQVTVSS	low polyreactivity
QVQLVESGGGLVQAGGSLRLTCAASGRIFIGYAMGWYRQAPGKERELVAAISRNGDNTYYADSVKGRFTISRDNAKNTVYLQMISLKPEDSAVYYCAAVAYPRQWKLSYEDGSWGYDYWGQGTQVTVSS	low polyreactivity

Sequence	polyreactivity (PSR sort gate)
QVQLVESGGGLVQAGGSLRVSCAASGRIIPSYAMGWYRQAPGKERELVAVIRSSVDGTYYADSVKGRFTISRDNAKNTVYLQMNSLKPEDTAVYYCAADSYPFFNLNQYPVREGEYGHWGQGTQVTVSS	low polyreactivity
QVQLVESGGGLVQAGGSLRLSCAASGITLYFYARGWYRQAPGKERELVAAISRGGRTYYADSVKGRFTISRDNAKNTVYLQMNSLKPEDTAVYDCAARYTSEYSAFDYWGQGTQVTVSS	low polyreactivity
QVQLVESGGGLVQAGGSLRLSCAASGYILDVYAMGWYRQAHGKEWELVAVITWRTDSTYYADSVKGRFTISRDNAKNTVYLQMNSLKPEDTAVYYCAKVLRLSKYRYYYWGQGTQVTVSS	high polyreactivity
QVQLVESGGGLVQAGGSLRLSCAASGRTFVKNAMGWYRLAPGKERELVAAISRRGGSTYYADSVKGRFTISRDNAKNTVYLQMNSRKPEDTAVYYCAAPYTRPTTGYDYWGQGTQVTVSS	high polyreactivity
QVQLVESGGGLVQAGGSLRLSCAASGSTFAQYAMGWYRQAPAKERELVAVISKRGGRTYYADSVKGRFTISRDNGKNTVYLQMNSLKPEDTAGYYCAADSGGPGYAMDYWGQGTQVTVSS	high polyreactivity
QVQLVESGGGLVQAGGSLRLICDASGRTFGPYVMRLYRQAPGKERELVASISSADSRYYADSVKGRFTISRDNAKNTVYLQMNSLKPEDTAVYYCAAPSVGYYDPTDFDYWGQGTQVTVSS	low polyreactivity
QVQLVESGGGLVQAGGSLRLSCAASGGIFWTYAMGWYRQEPGKERELVAAISYSDGITYYADSGKGRFTISRDNAKNTVYFQMYSLKPEDTAVYYCAADPELAVPMYYWGQGTQVTVSS	low polyreactivity
QVQLVESGGGLFQAGGSLRIICAASGSIFGAYAMGWYRQAPGKERELVAGIRRAGDSTYYADSVKGRFTISRDYAKNTVYLLMNCMKPEDTAVYYCAAYLYLEYYYRGQGTQVTVSS	low polyreactivity
QVQLVESGGGLVQAGGSLRLSCAASGFIFFYYAMGWYRQAPGKERELVAAISASGGSTYYADSVKGRFTMSRDNAKNTVYLQMNSLKPEDTAVYYCATDPISRARLYGQRDYWGQGTQVTVSS	high polyreactivity
QVQLVESGAGLVQAGGRLRLSCAASGSTFGYYAMGLYTQAPGTERELVAVITTRVGSTYYADSVKGRFTISRDNAKNTVYLQMNSLKPEDTAVYYCNASGRTRSYSGSFSKHYYWGQGTKVTVSS	high polyreactivity
QVQLVESGGGLVQAGGSLRLSCAASGFTFTSNIMGWYRQATGKERELVADISASDGRTYYADSVKGRFTISRDNAMNTVYLQMNSLKPEDTAVYYCNVSSRRLRGLDYWGQGTQVTVSS	low polyreactivity
QVQLVESGGGLVQAGGSLRLSCAASGLTFYPYAMGWYRQAPGKERELVAAINWSGTTTYYADSVKGRFTISRDNAKNTVYLQMNSLKPEDTAVYYCAAHYTTFIPSPDGDYLGQGTQVTVSS	low polyreactivity
QVQLVESGGGLVQAGGSLRLSCAASGGILVFYALGWYRQSPGKERELVAAINVSGGSTYYADSVKGRFTISRDNAKNTVYLQMNSLKPEDTAVYYCAALGPYLDYGVQYGYWGQGTQVTVSS	low polyreactivity
QVQLVESGGGLVQAGGSLRLSCAASGFTFLYYAMGWYRQAPGKERELVAAISASSDRTYYADSVKGRFTISRDNAMNTVYLQMNSLKPDDTAVYYCAAYNSRVGGYRGYGYWGQGTLVTVSS	high polyreactivity
QVQHVESGGGLVQAGGSLRLSCAASGSIFPLNAMGWSRQAPGQVSELVASISTGSSTYYADSVKGRFTISRDNAKNTVYLQMISLKPEDTAVYFCAVDRVLFSDFNRGYEYNYWGQGTQVTVSS	low polyreactivity
QVQLVESGGGLVQAGGSLRLSCAASGLTFHYYAMGRYRQATGKERELVAVIRGSCTSTYYADSVKGRFTISRDNAKNTVYLQMNSLKPEDTAVYYFAAPYQYRRSGRVLGKYDSRGQGTQVTVSS	high polyreactivity
QVQLVESGGGLVQAGGSLRLSCAASGSIFDDYAMGWYRQAPGKEREKVAAISWSGGRTYYADSVKGRFTISRDTAKNTVYLQMNSLKPEDTAVYYCAATTGVRSRRYYYWGQGTQVTVSS	high polyreactivity
QVQLQESGRRPRAAGGSPRMSCAASGNIIWVAVMCRYRQAPVKERELVASIGFGCTTYYADSVKCRFTISRDNAKNTVYLQMISLIPEDTAVYYCAAPHYDWGELDFWGQGTQVPVSS	low polyreactivity
QVQIVESGGGLVQAGGSLRLSSAASGITFRHYAMGWYRQAPGKERELVAAITSRGGSTYYADSVKGRFTISRDNAKNTVYLQMNSLKPEDTAVYYCAKGTVHSRPDFGRGWYRWDDYWGQGSQVTVSS	high polyreactivity
QVQLVESGGGLVQAGGSLRLSCAASGFTFLVNTMGWYRQAPGKERELVAATITSTGASTYYADSVKGRFTISRDNAKNTVYLQMNSLKPEDTAVYYCAVDPGGGNYIYYYNEYDYWGQGTQVTVSS	low polyreactivity
QVQLVESGGGLVQAGGSLRLSCAASGRTFFPYAMGWYRPAPGKEREFVAAITKTDDSTYYADSVKGRFTISRDNAKNTVYLQMNSLKPEDTAVYYCNAGDTQIRFYYWGQGTQVTVSS	low polyreactivity
